The text below walks through data of paper PMC8691596.

Several values for one entry are separate records, joined by “and”; a condition that tells them apart may be missing. Equal values may be shown once. Read-outs that look alike come from different tables or passages of the source.

In assay [1] the target is cynomolgus monkey FcRn, heterodimer with β2 microglobulin, extracellular domain with C-terminal hexa-His (cynomolgus monkey | not stated) (UniProt Q8SPV9). Briefly: SPR. On the technique in general: Surface plasmon resonance follows binding to a sensor surface in real time, without labels.
cynomolgus monkey FcRn, heterodimer with β2 microglobulin, extracellular domain with C-terminal hexa-His (cynomolgus monkey | not stated), sequence (Q8SPV9 24-297, chain 1 of 2): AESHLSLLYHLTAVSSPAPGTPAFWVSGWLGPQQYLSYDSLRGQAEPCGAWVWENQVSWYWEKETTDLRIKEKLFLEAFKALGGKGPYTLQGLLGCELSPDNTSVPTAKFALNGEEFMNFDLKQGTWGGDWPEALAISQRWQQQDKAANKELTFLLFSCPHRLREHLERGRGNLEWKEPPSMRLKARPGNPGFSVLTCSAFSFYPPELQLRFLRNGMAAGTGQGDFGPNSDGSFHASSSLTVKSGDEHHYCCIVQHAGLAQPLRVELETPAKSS
cynomolgus monkey FcRn, heterodimer with β2 microglobulin, extracellular domain with C-terminal hexa-His (cynomolgus monkey | not stated), sequence (Q6T672 21-119, chain 2 of 2, further chain): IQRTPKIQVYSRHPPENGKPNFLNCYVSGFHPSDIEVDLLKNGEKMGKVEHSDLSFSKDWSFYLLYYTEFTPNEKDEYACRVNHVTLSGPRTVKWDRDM
For assay [2], the target named is human FcRn, heterodimer with β2 microglobulin, extracellular domain with C-terminal hexa-His (UniProt P55899). Briefly: SPR.
human FcRn, heterodimer with β2 microglobulin, extracellular domain with C-terminal hexa-His, sequence (P55899 24-297, chain 1 of 2): as the sequence (Q8SPV9 24-297, chain 1 of 2) above, with D39N, Q44E, S99G, G189S, N190S, M217L, T269S counted along it
human FcRn, heterodimer with β2 microglobulin, extracellular domain with C-terminal hexa-His, sequence (partner, as listed by the source, chain 2 of 2): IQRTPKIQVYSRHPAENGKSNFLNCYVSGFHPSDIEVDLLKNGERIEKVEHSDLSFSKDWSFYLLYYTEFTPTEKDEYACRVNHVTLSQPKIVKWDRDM
The target in assay [3] is mouse FcRn, heterodimer with β2 microglobulin, extracellular domain with C-terminal hexa-His (mouse | not stated) (UniProt Q61559). Briefly: SPR.
mouse FcRn, heterodimer with β2 microglobulin, extracellular domain with C-terminal hexa-His (mouse | not stated), sequence (Q61559 22-297, chain 1 of 2): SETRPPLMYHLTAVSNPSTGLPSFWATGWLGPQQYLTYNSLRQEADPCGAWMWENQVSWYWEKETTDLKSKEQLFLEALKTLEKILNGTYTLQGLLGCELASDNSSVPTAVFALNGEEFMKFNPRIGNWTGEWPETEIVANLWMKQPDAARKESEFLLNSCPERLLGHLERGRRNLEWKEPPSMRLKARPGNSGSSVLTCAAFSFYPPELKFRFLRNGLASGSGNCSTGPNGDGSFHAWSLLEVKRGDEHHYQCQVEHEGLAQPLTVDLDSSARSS
mouse FcRn, heterodimer with β2 microglobulin, extracellular domain with C-terminal hexa-His (mouse | not stated), sequence (P01887 21-119, chain 2 of 2, further chain): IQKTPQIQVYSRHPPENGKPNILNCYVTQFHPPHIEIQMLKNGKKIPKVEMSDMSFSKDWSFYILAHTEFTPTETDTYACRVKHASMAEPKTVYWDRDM
In assay [4] the target is human FcγRIIa H131 extracellular domain, C-terminal hexa-His (independently-made panel) (human) (UniProt P12318).
human FcγRIIa H131 extracellular domain, C-terminal hexa-His (independently-made panel) (human), sequence (P12318 34-217): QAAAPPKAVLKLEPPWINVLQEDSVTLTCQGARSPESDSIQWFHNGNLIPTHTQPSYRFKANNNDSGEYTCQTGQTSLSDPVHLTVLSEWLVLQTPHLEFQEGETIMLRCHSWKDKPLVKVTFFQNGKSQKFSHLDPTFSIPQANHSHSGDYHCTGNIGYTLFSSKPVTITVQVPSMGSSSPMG
Assay [5] has as its target human FcγRI (CD64), histidine-tagged recombinant (human) (UniProt P12314). In words: SPR; His-tagged Fc receptor captured by anti-histidine antibody immobilised on CM5; antibody injected at 100 μg/mL for 1 min; response about 5 s before end of injection, blank subtracted; 25°C, HBS-EP+; Biacore T200.
Assay [6] concerns the target human FcγRIIb (CD32b), histidine-tagged recombinant (human) (UniProt P31994). Described as above.
Assay [7] concerns the target mouse FcγRI (CD64), histidine-tagged recombinant (mouse) (UniProt P26151). The assay is described as above.
Assay [8] addresses rat FcγRI (CD64), histidine-tagged recombinant (rat). Described as above.
The target in assay [9] is human FcγRIIa (CD32a) R131 allele, histidine-tagged recombinant (human) (UniProt P12318). Described as above.
human FcγRIIa (CD32a) R131 allele, histidine-tagged recombinant (human), sequence (P12318 34-217): as above
In assay [10] the target is human FcγRI (CD64), histidine-tagged recombinant (human) (UniProt P12314). The description is as above. This is another data set of the same source.
human FcγRI (CD64), histidine-tagged recombinant (human), sequence (P12314 16-292): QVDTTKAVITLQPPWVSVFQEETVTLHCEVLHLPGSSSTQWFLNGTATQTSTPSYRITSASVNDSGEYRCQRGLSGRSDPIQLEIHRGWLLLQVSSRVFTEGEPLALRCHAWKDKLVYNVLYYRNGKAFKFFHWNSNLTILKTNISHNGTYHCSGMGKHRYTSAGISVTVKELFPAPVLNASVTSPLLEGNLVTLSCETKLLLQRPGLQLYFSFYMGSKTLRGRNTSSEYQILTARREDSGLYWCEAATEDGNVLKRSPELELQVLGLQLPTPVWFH
The target in assay [11] is human FcγRIIIb (CD16b) NA2 allele, histidine-tagged recombinant (human) (UniProt O75015). The assay is described as above.
human FcγRIIIb (CD16b) NA2 allele, histidine-tagged recombinant (human), sequence (O75015 17-200): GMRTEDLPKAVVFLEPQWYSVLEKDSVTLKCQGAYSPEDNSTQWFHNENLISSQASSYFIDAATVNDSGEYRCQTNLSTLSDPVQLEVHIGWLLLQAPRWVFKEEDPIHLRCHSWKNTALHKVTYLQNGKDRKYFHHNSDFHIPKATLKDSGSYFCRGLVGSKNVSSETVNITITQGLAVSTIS
The target of assay [12] is human FcγRIIIa (CD16a) F158 allele, histidine-tagged recombinant (human) (UniProt P08637). The description is as above.
human FcγRIIIa (CD16a) F158 allele, histidine-tagged recombinant (human), sequence (P08637 17-208): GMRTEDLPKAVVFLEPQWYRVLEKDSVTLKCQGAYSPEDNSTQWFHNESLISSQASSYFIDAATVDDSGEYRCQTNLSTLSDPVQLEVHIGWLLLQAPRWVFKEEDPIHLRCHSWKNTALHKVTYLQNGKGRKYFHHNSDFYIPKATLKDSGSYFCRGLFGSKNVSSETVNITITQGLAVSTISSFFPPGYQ
For assay [13], the target named is human FcγRIIIa (CD16a) V158 allele, histidine-tagged recombinant (human) (UniProt P08637). Described as above.
human FcγRIIIa (CD16a) V158 allele, histidine-tagged recombinant (human), sequence (P08637 17-208): as above
Assay [14] concerns the target human FcγRIIb (CD32b), histidine-tagged recombinant (human) (UniProt P31994).
The target of assay [15] is human FcγRI (CD64), histidine-tagged recombinant (human) (UniProt P12314).
Assay [16] has as its target human FcγRIIIa (CD16a) V158 allele, histidine-tagged recombinant (human) (UniProt P08637).

The term Kd denotes a measure of binding affinity in units of concentration.

human FcγRIIb (CD32b), histidine-tagged recombinant (human), sequence (P31994 43-217): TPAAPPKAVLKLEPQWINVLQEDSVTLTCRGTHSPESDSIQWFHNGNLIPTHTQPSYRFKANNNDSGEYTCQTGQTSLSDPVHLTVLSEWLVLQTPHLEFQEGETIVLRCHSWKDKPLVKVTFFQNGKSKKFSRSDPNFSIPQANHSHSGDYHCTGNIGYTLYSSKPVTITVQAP
mouse FcγRI (CD64), histidine-tagged recombinant (mouse), sequence (P26151 25-297): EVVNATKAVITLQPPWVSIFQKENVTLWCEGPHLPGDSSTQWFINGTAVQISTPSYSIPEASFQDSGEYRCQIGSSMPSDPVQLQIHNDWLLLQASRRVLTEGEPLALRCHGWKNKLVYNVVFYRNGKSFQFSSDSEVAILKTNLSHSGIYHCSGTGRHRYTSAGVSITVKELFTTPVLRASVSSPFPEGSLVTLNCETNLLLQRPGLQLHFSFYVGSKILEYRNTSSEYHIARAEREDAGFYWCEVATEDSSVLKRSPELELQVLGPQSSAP

As for “Remicade (rituximab, wild-type human IgG1) (from UniProt P01857)”, the Kd was 347 nM in [1], 562 nM in assay [2] and 71 nM in assay [3].

Turning to “anti-CD20 (rituximab variable regions) human IgG1 wild type reference (antibody)”, in [4], the Mean normalised luminescence (% of wild-type reference); Promega Fc effector bioassay, Jurkat NFAT-luciferase cells with the receptor + Raji cells, antibody 10 μg/mL came out at 100%.

As to “anti-CD20 IgG1 L234S/L235V/G236R (antibody)”, the mean response in [5] is 2.4 RU; in assay [6], -0.8 RU; in assay [7] it was 0.1 RU; in assay [8], -0.4 RU; in assay [9] it was 0.3 RU; in assay [10] it was -1.6 RU. Further, the mean response was determined as 0.6 RU in assay [11], 0 RU in [12] and 0.8 RU in assay [13]. Moreover, in assay [5], the response was 2.1 RU and 4.3 RU. Besides, the figures for the Mean normalised luminescence (% of wild-type reference); Promega Fc effector bioassay, Jurkat NFAT-luciferase cells with the receptor + Raji cells, antibody 10 μg/mL in assay [14], in [15] and in assay [16] were 1.7%, 1.9% and 2.1%, respectively.

As for “anti-CD20 IgG1 L234T/L235Q/G236R (antibody)”, the mean response was 3 RU in [5]; -1.1 RU in [6]; -4.1 RU in [7]; -2.5 RU in assay [8]; 0.2 RU in assay [9]; -1.9 RU in [10]. For the same substance, the mean response in assay [11] is -1.5 RU; in assay [12] it was -0.5 RU; in assay [13] it was -4 RU. In assay [5], the response is 4.5 RU. The Mean normalised luminescence (% of wild-type reference); Promega Fc effector bioassay, Jurkat NFAT-luciferase cells with the receptor + Raji cells, antibody 10 μg/mL was found to be 1.7% in [14], 1.9% in assay [15] and 2.1% in assay [16].
